Legend:
[1] = target: T1, FcγRIIIa extracellular domain with C-terminal His tag (human, UniProt P08637 17-208); test: SPR (Biacore), relative binding, GpH7-A5/GpH7-B3/GpL16-k0 = 100
T1 construct: extracellular domain; also called 3a; FcgRIIIa; not shown: His tag at the C terminus
Protocol: (§1) Analysis of interaction between objective antibody and the FcγR was carried out using Biacore T100 (GE Healthcare). HBS-EP+ (GE Healthcare) was used as the running buffer, and the measurement temperature was set to 25° C. Chips produced by immobilizing the antigen peptide by the amine coupling method to a Series S Sencor Chip CM5 (GE Healthcare), or alternatively, chips produced by allowing preliminarily biotinylated antigen peptides to interact with and immobilize onto a Series S Sensor Chip SA (certified) (GE Healthcare) were used. Antibodies of interest were captured onto an antigen peptide-immobilized chip, and allowed to interact to each FcγR diluted with running buffer. To regenerate and repeatedly use the chip, the antibodies captured on the chip were washed off by reacting 10 mM glycine-HCl, pH 1.5.
(§2) The FcγR-binding activity of each antibody was assessed primarily using as an indicator the FcγR-binding activity and dissociation constant for FcγR.

[2] = target: T2, FcγRIIb extracellular domain with C-terminal His tag (human, UniProt P31994 43-217); test: as above
T2 construct: extracellular domain; also called 2b; FcgRIIb; not shown: His tag at the C terminus
T2 sequence (looked up): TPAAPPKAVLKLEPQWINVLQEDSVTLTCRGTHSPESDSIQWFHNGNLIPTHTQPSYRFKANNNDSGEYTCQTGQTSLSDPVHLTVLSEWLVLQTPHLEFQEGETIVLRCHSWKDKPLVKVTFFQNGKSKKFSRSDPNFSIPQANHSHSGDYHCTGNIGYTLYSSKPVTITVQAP
Protocol: as §1, §2

T1 sequence (P08637 17-208): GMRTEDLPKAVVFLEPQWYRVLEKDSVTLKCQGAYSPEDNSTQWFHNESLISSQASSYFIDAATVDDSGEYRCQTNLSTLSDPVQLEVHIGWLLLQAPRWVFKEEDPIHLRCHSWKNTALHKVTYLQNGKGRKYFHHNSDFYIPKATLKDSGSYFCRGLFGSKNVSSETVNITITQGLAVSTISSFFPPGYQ

B1: GpH7-A5/GpH7-B3 variant P331_04F/GpL16-k0 (antibody, human IgG1, kappa)
heavy 1: not shown
heavy 2: not shown
light: DIVMTQSPLSLPVTPGEPASISCQASESLVHSNRNTYLHWYLQKPGQSPQLLIYKVSNRFSGVPDRFSGSGSGTDFTLKISRVEAEDVGVYYCSQNTHVPPTFGQGTKVEIERTVAAPSVFIFPPSDEQLKSGTASVVCLLNNFYPREAKVQWKVDNALQSGNSQESVTEQDSKDSTYSLSSTLTLSKADYEKHKVYACEVTHQGLSSPVTKSFNRGEC
notes: He Ab: mutation in the GpH7-B3 H chain only; also called He Ab
He/Con_3a [1]: 77.3 % of control | He/Con_2b [2]: 110 % of control

B2: GpH7-A5/GpH7-B3 variant P331_10E/GpL16-k0 (antibody, human IgG1, kappa)
heavy 1: not shown
heavy 2: not shown
light: DIVMTQSPLSLPVTPGEPASISCQASESLVHSNRNTYLHWYLQKPGQSPQLLIYKVSNRFSGVPDRFSGSGSGTDFTLKISRVEAEDVGVYYCSQNTHVPPTFGQGTKVEIERTVAAPSVFIFPPSDEQLKSGTASVVCLLNNFYPREAKVQWKVDNALQSGNSQESVTEQDSKDSTYSLSSTLTLSKADYEKHKVYACEVTHQGLSSPVTKSFNRGEC
notes: as for B1
He/Con_3a [1]: 75.1 % of control | He/Con_2b [2]: 116 % of control

B3: GpH7-A5/GpH7-B3 variant N325_20W/GpL16-k0 (antibody, human IgG1, kappa)
heavy 1: not shown
heavy 2: not shown
light: DIVMTQSPLSLPVTPGEPASISCQASESLVHSNRNTYLHWYLQKPGQSPQLLIYKVSNRFSGVPDRFSGSGSGTDFTLKISRVEAEDVGVYYCSQNTHVPPTFGQGTKVEIERTVAAPSVFIFPPSDEQLKSGTASVVCLLNNFYPREAKVQWKVDNALQSGNSQESVTEQDSKDSTYSLSSTLTLSKADYEKHKVYACEVTHQGLSSPVTKSFNRGEC
notes: as for B1
He/Con_3a [1]: 32.8 % of control | He/Con_2b [2]: 169 % of control

B4: GpH7-A5/GpH7-B3 variant N325_08L/GpL16-k0 (antibody, human IgG1, kappa)
heavy 1: not shown
heavy 2: not shown
light: DIVMTQSPLSLPVTPGEPASISCQASESLVHSNRNTYLHWYLQKPGQSPQLLIYKVSNRFSGVPDRFSGSGSGTDFTLKISRVEAEDVGVYYCSQNTHVPPTFGQGTKVEIERTVAAPSVFIFPPSDEQLKSGTASVVCLLNNFYPREAKVQWKVDNALQSGNSQESVTEQDSKDSTYSLSSTLTLSKADYEKHKVYACEVTHQGLSSPVTKSFNRGEC
notes: as for B1
He/Con_3a [1]: 33.3 % of control | He/Con_2b [2]: 197 % of control

B5: GpH7-A5/GpH7-B3 variant S267_02A/GpL16-k0 (antibody, human IgG1, kappa)
heavy 1: not shown
heavy 2: not shown
light: DIVMTQSPLSLPVTPGEPASISCQASESLVHSNRNTYLHWYLQKPGQSPQLLIYKVSNRFSGVPDRFSGSGSGTDFTLKISRVEAEDVGVYYCSQNTHVPPTFGQGTKVEIERTVAAPSVFIFPPSDEQLKSGTASVVCLLNNFYPREAKVQWKVDNALQSGNSQESVTEQDSKDSTYSLSSTLTLSKADYEKHKVYACEVTHQGLSSPVTKSFNRGEC
notes: as for B1
He/Con_3a [1]: 150 % of control | He/Con_2b [2]: 243 % of control

B6: GpH7-A5/GpH7-B3 variant P331_16H/GpL16-k0 (antibody, human IgG1, kappa)
heavy 1: not shown
heavy 2: not shown
light: DIVMTQSPLSLPVTPGEPASISCQASESLVHSNRNTYLHWYLQKPGQSPQLLIYKVSNRFSGVPDRFSGSGSGTDFTLKISRVEAEDVGVYYCSQNTHVPPTFGQGTKVEIERTVAAPSVFIFPPSDEQLKSGTASVVCLLNNFYPREAKVQWKVDNALQSGNSQESVTEQDSKDSTYSLSSTLTLSKADYEKHKVYACEVTHQGLSSPVTKSFNRGEC
notes: as for B1
He/Con_3a [1]: 80.2 % of control | He/Con_2b [2]: 116 % of control

B7: GpH7-A5/GpH7-B3 variant P331_06M/GpL16-k0 (antibody, human IgG1, kappa)
heavy 1: not shown
heavy 2: not shown
light: DIVMTQSPLSLPVTPGEPASISCQASESLVHSNRNTYLHWYLQKPGQSPQLLIYKVSNRFSGVPDRFSGSGSGTDFTLKISRVEAEDVGVYYCSQNTHVPPTFGQGTKVEIERTVAAPSVFIFPPSDEQLKSGTASVVCLLNNFYPREAKVQWKVDNALQSGNSQESVTEQDSKDSTYSLSSTLTLSKADYEKHKVYACEVTHQGLSSPVTKSFNRGEC
notes: as for B1
He/Con_3a [1]: 74.8 % of control | He/Con_2b [2]: 102 % of control

B8: GpH7-A5/GpH7-B3 variant S267_01G/GpL16-k0 (antibody, human IgG1, kappa)
heavy 1: not shown
heavy 2: not shown
light: DIVMTQSPLSLPVTPGEPASISCQASESLVHSNRNTYLHWYLQKPGQSPQLLIYKVSNRFSGVPDRFSGSGSGTDFTLKISRVEAEDVGVYYCSQNTHVPPTFGQGTKVEIERTVAAPSVFIFPPSDEQLKSGTASVVCLLNNFYPREAKVQWKVDNALQSGNSQESVTEQDSKDSTYSLSSTLTLSKADYEKHKVYACEVTHQGLSSPVTKSFNRGEC
notes: as for B1
He/Con_3a [1]: 53.8 % of control | He/Con_2b [2]: 105 % of control

B9: GpH7-A5/GpH7-B3 variant P331_20W/GpL16-k0 (antibody, human IgG1, kappa)
heavy 1: not shown
heavy 2: not shown
light: DIVMTQSPLSLPVTPGEPASISCQASESLVHSNRNTYLHWYLQKPGQSPQLLIYKVSNRFSGVPDRFSGSGSGTDFTLKISRVEAEDVGVYYCSQNTHVPPTFGQGTKVEIERTVAAPSVFIFPPSDEQLKSGTASVVCLLNNFYPREAKVQWKVDNALQSGNSQESVTEQDSKDSTYSLSSTLTLSKADYEKHKVYACEVTHQGLSSPVTKSFNRGEC
notes: as for B1
He/Con_3a [1]: 78.6 % of control | He/Con_2b [2]: 111 % of control

B10: GpH7-A5/GpH7-B3 variant N325_06M/GpL16-k0 (antibody, human IgG1, kappa)
heavy 1: not shown
heavy 2: not shown
light: DIVMTQSPLSLPVTPGEPASISCQASESLVHSNRNTYLHWYLQKPGQSPQLLIYKVSNRFSGVPDRFSGSGSGTDFTLKISRVEAEDVGVYYCSQNTHVPPTFGQGTKVEIERTVAAPSVFIFPPSDEQLKSGTASVVCLLNNFYPREAKVQWKVDNALQSGNSQESVTEQDSKDSTYSLSSTLTLSKADYEKHKVYACEVTHQGLSSPVTKSFNRGEC
notes: as for B1
He/Con_3a [1]: 31.4 % of control | He/Con_2b [2]: 217 % of control

Source: patent US20180155451A1 (published 2018)
